Measured values taken from patent US20230140293A1.

What was measured:
Assay in all cases: ELISA, gp120 on plate
[1] = molecular target: CH505 M5 gp120 (HIV-1)
[2] = molecular target: CH505 M11 gp120 (HIV-1)
[3] = molecular target: CH505 w020.14 gp120 (HIV-1)
[4] = molecular target: CH505 transmitted/founder (TF) gp120 (HIV-1)
[5] = molecular target: CH505 w030.28 gp120 (HIV-1)
[6] = molecular target: CH505 w053.16 gp120 (HIV-1)
[7] = molecular target: CH505 w078.15 gp120 (HIV-1)

Substance | log AUC [1] [log AUC] | log AUC [2] [log AUC] | log AUC [3] [log AUC] | log AUC [4] [log AUC] | log AUC [5] [log AUC] | log AUC [6] [log AUC] | log AUC [7] [log AUC]
CH103 lineage intermediate ancestor IA3 (antibody) | 6.8 | 11.8 | 9.5 | 11 | 7.7 | 1.1 | 3
CH103 lineage intermediate ancestor IA4 (antibody) | 3.8 | 10.5 | 8.6 | 10.1 | 6.5 | 0.2 | 1.3
CH103 lineage intermediate ancestor IA6 (antibody) | 3.3 | 10 | 7.9 | 9.1 | 6.3 | – | 1
CH103 lineage intermediate ancestor IA7 (antibody) | 2.3 | 10.1 | 7.2 | 9.2 | 3.5 | – | 0.7
